From paper PMC4022893, “Evidence for Follicle-stimulating Hormone Receptor as a Functional Trimer*” (The Journal of Biological Chemistry, 2014)

T1: human follicle-stimulating hormone receptor on CHO-DUKX cell membranes (human, UniProt P23945 18-695)
T1 construct: follicle-stimulating hormone receptor, human, expressed in CHO-DUKX cells; Used as isolated membranes, not live cells; also called FSHR; hFSHR; source: CHO-DUKX cells expressing the human FSH receptor, membrane preparation (nitrogen cavitation, 100,000 x g pellet)
T1 sequence (looked up): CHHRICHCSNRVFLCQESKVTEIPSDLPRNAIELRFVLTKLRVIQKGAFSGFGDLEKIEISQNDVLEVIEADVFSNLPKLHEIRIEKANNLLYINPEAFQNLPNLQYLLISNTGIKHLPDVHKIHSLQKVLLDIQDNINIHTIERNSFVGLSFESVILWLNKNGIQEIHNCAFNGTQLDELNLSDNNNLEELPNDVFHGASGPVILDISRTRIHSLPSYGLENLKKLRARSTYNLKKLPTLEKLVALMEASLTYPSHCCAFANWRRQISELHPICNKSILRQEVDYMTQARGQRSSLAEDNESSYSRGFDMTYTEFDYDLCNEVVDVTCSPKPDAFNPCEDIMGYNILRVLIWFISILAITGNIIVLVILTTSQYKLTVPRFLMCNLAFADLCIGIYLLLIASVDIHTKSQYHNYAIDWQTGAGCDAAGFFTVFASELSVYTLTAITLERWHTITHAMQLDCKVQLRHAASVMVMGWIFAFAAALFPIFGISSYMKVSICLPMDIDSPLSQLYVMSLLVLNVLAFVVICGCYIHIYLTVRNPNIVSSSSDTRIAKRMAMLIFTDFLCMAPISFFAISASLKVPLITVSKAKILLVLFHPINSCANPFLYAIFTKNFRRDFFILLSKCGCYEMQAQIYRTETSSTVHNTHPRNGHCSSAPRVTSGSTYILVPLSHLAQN

B1: 125I-N52D-FSH (FSH with Asn52 of the alpha-subunit mutated to aspartate) (ligand)
chain 1: not shown
chain 2: NSCELTNITIAIEKEECRFCISINTTWCAGYCYTRDLVYKDPARPKIQKTCTFKELVYETVRVPGCAHHADSLYTYPVATQCHCGKCDSDSTDCTVRGLGPSYCSFGEMKE
modifications: no glycan at position 52; 125I label (chain not stated)
notes: glycoprotein hormones alpha chain (FSH alpha-subunit), human; Heterodimer; the other three glycosylation sites are unchanged; also called αN52D-FSH mutant; mutant-N52D; source: recombinant, prepared using the same protocols as the fully glycosylated FSH; 125I-labelled (PerkinElmer Life Sciences)
B2: full ectodomain of human FSHR (FSHRED, Ser16-Arg366) (domain or fragment, UniProt P23945 16-366, looked up)
chain: SGCHHRICHCSNRVFLCQESKVTEIPSDLPRNAIELRFVLTKLRVIQKGAFSGFGDLEKIEISQNDVLEVIEADVFSNLPKLHEIRIEKANNLLYINPEAFQNLPNLQYLLISNTGIKHLPDVHKIHSLQKVLLDIQDNINIHTIERNSFVGLSFESVILWLNKNGIQEIHNCAFNGTQLDELNLSDNNNLEELPNDVFHGASGPVILDISRTRIHSLPSYGLENLKKLRARSTYNLKKLPTLEKLVALMEASLTYPSHCCAFANWRRQISELHPICNKSILRQEVDYMTQARGQRSSLAEDNESSYSRGFDMTYTEFDYDLCNEVVDVTCSPKPDAFNPCEDIMGYNILR
notes: follicle-stimulating hormone receptor, human, full ectodomain, residues Ser16-Arg366; Three copies form a trimer in the crystal; also called FSHED; FSHR extracellular domain

Assays:
[1] = target: T1, human follicle-stimulating hormone …; experiment: radioligand binding; 5 μg CHO-FSHR membrane with increasing concentrations of 125I-ligand; 10 mM Tris pH 7.4, 5 mM MgCl2, 0.2% BSA; 90 min at 37 °C; filtration; nonspecific binding with 500-fold excess of FSH; no Compound 5; settings: one partner purified
[2] = target: T1, human follicle-stimulating hormone …; experiment: as above; settings: one partner purified; remark: listed apart in the source
[3] = target: the molecule itself; experiment: crystal structure; FSH-FSHRED complex at 10 mg/ml, 20 °C, hanging drops, 0.1 M imidazole pH 8.0, 20% Jeffamine M-600; space group P3_(1)

Binder	Kd [1]	receptor binding ratio of the N52D mutant to fully glycosylated FSH [2]	stoichiometry N [3]
B1	400 pM	~3	–
B2	–	–	3
